Where a chain is given by its changes, count along the chain named.
B1: Clone G3 chimeric ROR1 antibody (antibody, V domains shown)
VH: EVQLQESGPGLVKPAQSLSLTCSVTGYSITNMYRWNWIRKFPGNKLEWMGYINTAGSTDYSPSLRGRVSITGDTSKNQFFLHLTSVTTEDTATYYCAGFITNPFDFWGQGVMVTVSS
VL: DVVMTQTPVSLPVSLGGQVSISCRSSQSLEHSNGDTFLHWYLQKPGQSPRLLIYRVSNRFSGVPDRFSGSGSGTDFTLKISRIEPEDLGDYYCLQSTHFPNTFGAGTKLELK
B2: Clone G5 chimeric ROR1 antibody (antibody, V domains shown)
VH: EVQVVESGGGLVQPGRSLKLSCVPSGFTFNNYWMTWIRQAPGKAPEWVASISNTGGSTFYPDSVRGRFSISRDNTKGTLYLHMTSLRSEDTATYYCIRNMDAWGQGTSVTVSS
VL: DIQLTQSPSTLSASLGERVTISCRASQSISNSLNWYQQKPDGTVKRLIYSTSTLESGVPSRFSGSGSGTDFSLSISSLESEDFAMYYCLQFATYPQVTFGSGTKLEIK
B3: Clone O chimeric ROR1 antibody (antibody, V domains shown)
VH: QVRLLQSGAALVKPGASVKMSCKASGYTFTDYWMSWVKQSHGKSLEWIGEIYPNSGATNFNEKFKDKATLTVDRSTSTAYMELSRLTSEDSAIYYCARGFPNNYLSWFAYWGQGTLVTVSS
VL: DIVLTQSPALAVSLEQRVTIACKTSQNVDNHGISYMHWYQQKSGQEPKLLIYEGSNLAVGIPARFSGSGSGTDFTLTIDPVEADDIETYYCQQSKDDPRTFGGGTKLELK
B4: Clone J chimeric ROR1 antibody (antibody, V domains shown)
VH: DVKLVESGGGLLKPGGSLKLSCVASGFSFSKYWMHWVRQAPGQGLEWIAEIEYDGTETNYAPSIKDRFTISRDNAKNTLYLQMSNVRFEDAATYFCTTEEMHTTDYYYGFAYWGQGTLVTVSS
VL: DIVLTQSPALAVSVGQRATISCRASQSVSISRYDFMHWYQQKPGQQPKLLIYRASNLASGIPARFSGSGSGTDFTLTINPVQADDIATYYCQQNRESPRTFGGGTKLELK
notes: also called J6
B5: Clone I chimeric ROR1 antibody (antibody, V domains shown)
VH: EVQLVESGGGSVQPGRSLKLSCAASGFTFSDYNMAWVRQAPKKGPEWVATITYDVHNAYYRDSVKGRFTISRDDAKSTLYLQMDSLRSEDTATYFCARPGAYWGQGTLVTVSS
VL: DIQLTQSPSSMSASLGDRVSLTCQSSQGIGKYLSWYQHKPGKPPKAMIYYATKLADGVPSRFSGSRSGSDFSLTISSLESEDIAIYYCLQFDDYPWTFGGGTKLELK
B6: Clone E7 chimeric ROR1 antibody (antibody, V domains shown)
VH: GKLVESGGGLLKPGGSLKLSCVASGFTFDKYWMHWVRQAPGKGLEWIAEIEYDGTETNYAPSIKDRFTISRDNAKNTLYLQMSNVRSEDAATYFCTTEEMYTTDYYYGFAYWGQGTLVTVSS
VL: B4 VL with D34N
B7: Clone B chimeric ROR1 antibody (antibody, V domains shown)
VH: DVQLEESGGGLVRPGRSLKLSCADSGVNFSNRGMAWVRQAPTKGLEWVATISYDGRIIYYRDSVKGRFSISRENAKSTLYLQMDSLRSEDTATYYCARHPIAADWYFDFWGPGTMVTVSS
VL: DIRMTQSPASLSASLGETVTIECLTSEDIYSDLAWFQQKPGKSPQLLIYDANSLQNGVPSRFGGCGSGTQYSLQISSLQSEDVATYFCQQYKNYPPTFGGGTKLVLK
notes: also called B5
B8: Clone Pi chimeric ROR1 antibody (antibody, V domains shown)
VH: EVQLVESGGGLVQPGRSLTLSCSASGFTFRDYNMAWVRQAPRKGLEWVATISFDDYNTYYRDSVKGRFTISRDDAKSTLYLQMDSLRSEDTATYYCARPGTYWGQGTLVTVSS
VL: DIQLTQSPSSLSASLGDRVSLTCQSSQGIGKYLSWFQHKPGKPPKPVINYATNLADGVPSRFSGRRSGSDFSLTISSLESEDTAIYYCLQFDDFRWTVGGGTKLELK
B9: 4a5 (previously published ROR1 antibody) (antibody, V domains shown)
VH: EVKLVESGGGLVKPGGSLKLSCAASGFTFSSYAMSWVRQIPEKRLEWVASISRGGTTYYPDSVKGRFTISRDNVRNILYLQMSSLRSEDTAMYYCGRYDYDGYYAMDYWGQGTSVTVSS
VL: DIKMTQSPSSMYASLGERVTITCKASPDINSYLSWFQQKPGKSPKTLIYRANRLVDGVPSRFSGGGSGQDYSLTINSLEYEDMGIYYCLQYDEFPYTFGGGTKLEMK
B10: D10 (previously published ROR1 antibody, the prototype of Cirmtuzumab) (antibody, V domains shown)
VH: QVQLKESGPGLVAPSQTLSITCTVSGFSLTSYGVHWVRQPPGKGLEWLGVIWAGGFTNYNSALKSRLSISKDNSKSQVLLKMTSLQTDDTAMYYCARRGSSYSMDYWGQGTSVIVSS
VL: EIVLSQSPAITAASLGQKVTITCSASSNVSYIHWYQQRSGTSPRPWIYEISKLASGVPVRFSGSGSGTSYSLTISSMEAEDAAIYYCQQWNYPLITFGSGTKLEIQ
B11: R12 (previously published ROR1 antibody) (antibody, V domains shown)
VH: QEQLVESGGRLVTPGGSLTLSCKASGFDFSAYYMSWVRQAPGKGLEWIATIYPSSGKTYYATWVNGRFTISSDNAQNTVDLQMNSLTAADRATYFCARDSYADDGALFNIWGPGTLVTISS
VL: ELVLTQSPSVSAALGSPAKITCTLSSAHKTDTIDWYQQLQGEAPRYLMQVQSDGSYTKRPGVPDRFSGSSSGADRYLIIPSVQADDEADYYCGADYIGGYVFGGGTQLTVTG

Biological target: T1, Fz+Kg (human, UniProt Q01973)
T1 construct: also called ROR1 Frizzled+Kringle domains, on transduced SUP-T1 cells
T1 sequence (Q01973 165-391 limits assumed): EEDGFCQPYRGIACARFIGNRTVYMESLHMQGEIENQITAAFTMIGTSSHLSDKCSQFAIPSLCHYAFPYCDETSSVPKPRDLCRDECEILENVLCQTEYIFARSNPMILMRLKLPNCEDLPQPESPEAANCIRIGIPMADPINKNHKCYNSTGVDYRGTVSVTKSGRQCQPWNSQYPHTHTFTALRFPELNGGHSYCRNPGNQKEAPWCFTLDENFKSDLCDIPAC
Assay: flow cytometry, transduced SUP-T1 cells, anti-human Fc-Dylight647
Method: (§1) FIG. 1A-FIG. 1C: Identification of ROR1 binding domain: FIG. 1A: SUP-T1 cells were transduced with retroviral vectors containing either the full extracellular portion of ROR1 or only one or two extracellular domains. Non-transduced SUP-T1 (SUP-T1 NT) cells served as negative control. FIG. 1B: All 12 chimeric antibodies and FIG. 1C all 10 positive clones in scFv format were incubated with SUP-T1 NT and the new stable cell lines at 4° C. for 30 min. Cells were washed and stained with a secondary antibody (anti-human Fc-Dylight647), which was used as negative control. eROR1=extracellular ROR1, Ig-like=Immunoglobulin-like domain, Fz=Frizzled domain, Kg=Kringle domain.

Row | Binder | binding result
1 | B1 | no binding
2 | B2 | no binding
3 | B3 | no binding
4 | B4 | no binding
5 | B5 | no binding
6 | B6 | no binding
7 | B7 | no binding
8 | B8 | no binding

Biological target: T2, Kringle (Kg) (human, UniProt Q01973)
T2 construct: also called ROR1 Kringle domain alone, on transduced SUP-T1 cells
T2 sequence (Q01973 312-391 limits assumed): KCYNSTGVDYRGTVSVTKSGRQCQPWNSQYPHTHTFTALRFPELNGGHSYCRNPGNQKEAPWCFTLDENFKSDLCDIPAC
Assay: as above
Method: as §1

Row | Binder | binding result
9 | B1 | no binding
10 | B2 | no binding
11 | B3 | no binding
12 | B4 | no binding
13 | B5 | no binding
14 | B6 | no binding
15 | B7 | no binding
16 | B8 | no binding

Biological target: T3, ROR1 Frizzled domain alone, on transduced SUP-T1 cells (human, UniProt Q01973 165-299)
T3 construct: domain: Fz; also called Fz; ROR1-Fz domain
T3 sequence (Q01973 165-299): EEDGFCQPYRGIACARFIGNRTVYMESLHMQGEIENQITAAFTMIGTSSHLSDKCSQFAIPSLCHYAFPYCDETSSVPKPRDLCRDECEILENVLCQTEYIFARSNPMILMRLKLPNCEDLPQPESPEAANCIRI
Assay: as above
Method: as §1

Row | Binder | binding result
17 | B1 | no binding
18 | B2 | no binding
19 | B3 | no binding
20 | B4 | no binding
21 | B5 | no binding
22 | B6 | no binding
23 | B7 | no binding
24 | B8 | no binding

Biological target: T4, ROR1, full extracellular region, on transduced SUP-T1 cells (UniProt Q01973 30-406)
T4 construct: extracellular domain; also called eROR1; extracellular ROR1
T4 sequence (Q01973 30-406): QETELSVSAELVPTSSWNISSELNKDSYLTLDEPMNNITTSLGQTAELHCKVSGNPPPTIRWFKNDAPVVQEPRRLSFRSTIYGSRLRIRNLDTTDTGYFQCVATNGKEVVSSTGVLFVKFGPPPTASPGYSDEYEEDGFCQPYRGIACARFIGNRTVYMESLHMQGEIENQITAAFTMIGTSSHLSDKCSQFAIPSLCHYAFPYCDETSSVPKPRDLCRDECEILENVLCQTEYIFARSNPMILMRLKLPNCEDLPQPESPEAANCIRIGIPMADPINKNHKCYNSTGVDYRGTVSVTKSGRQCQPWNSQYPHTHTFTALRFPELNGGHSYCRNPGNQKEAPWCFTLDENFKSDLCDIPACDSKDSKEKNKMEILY
Assay: flow cytometry, ROR1-transduced cells, single staining; Q1 = ahFc+ only; amFc+ahFc alone Q1 0.060
Description: FIG. 7A-FIG. 7C: Competition assay by flow cytometry. Clone A (SA1) in murine IgG2a, k (mSA1) along with other ROR1 MAbs in human IgG1, k-including previously published 4a5, D10 and R12 clones—were used for staining ROR1-transduced cells. MAb staining was done as FIG. 7A-FIG. 7B: single agents or FIG. 7C: in combination with clone A (mSA1). Anti-human IgG (450) and anti-mouse IgG (DyLight649) were used as secondary antibodies. Combined staining using clones F and mSA1 acted as negative control for overlapping epitopes.
In FIG. 7C, three different columns are presented. Dot plots on the first column correspond to ROR1 binding assessed when SUP-T1 ROR1 cells were stained with clone A (SA1) (mIgG) in the first instance. After a washing step, cells were stained with a competitor antibody (hIgG), followed by another washing step. Both antibodies were then detected by a third staining step using the appropriate secondary antibodies. In the second column, a similar approach was taken when staining these cells, except that this time it was the antibody in hIgG1, k format the one used for the first staining step, followed by clone A (SA1) staining. On the third column, both antibodies were used at the same time.

Row | Binder | Q1 quadrant figure
25 | B1 | 96.1
26 | B2 | 96.7

Biological target: T4, ROR1, full extracellular region, on …
Assay: flow cytometry, ROR1-transduced cells, single staining; Q1 = ahFc+ only; amFc+ahFc alone Q1 0.060 (FIG. 7A)

Row | Binder | Q1 quadrant figure
27 | B9 | 96.9
28 | B10 | 84.3
29 | B11 | 96.9

Biological target: T5, Histidine-tagged ROR1 protein (extracellular region) (UniProt Q01973 30-406)
T5 construct: extracellular domain; also called extracellular portion of ROR1 bearing a Histidine tag; not shown: Histidine tag
T5 sequence (Q01973 30-406): as above
Assay: SPR, Biacore X100; antibody captured by anti-human IgG1 on CM5 chip, His-tagged ROR1 extracellular portion injected at 1.5-100 nM
Method: FIG. 3: KD determination by surface plasmon resonance. Sensorgrams obtained using a Biacore X100 instrument are shown. Briefly, ROR1 antibodies were immobilized using a CM5 chip and seven different concentrations of the Histidine-tagged ROR1 protein (extracellular region) were injected. Concentrations ranged from […].
We undertook surface plasmon resonance evaluation using a Biacore X100 instrument. ROR1 chimeric antibodies were immobilised using an anti-human IgG1 antibody capture kit and a CM5 sensor chip. Seven different concentrations, ranging from 1.5-100 nM, of the extracellular portion of ROR1 bearing a Histidine tag were then injected.

Row | Binder | Kd [nM] | koff [s⁻¹] | kon [M⁻¹ s⁻¹]
30 | B1 | 2.45 | 0.000266 | 109000
31 | B2 | 2.61 | 0.000416 | 159000
32 | B3 | 3.5 | 0.000607 | 174000
33 | B4 | 3.35 | 0.000835 | 249000
34 | B5 | 2.44 | 0.00051 | 209000
35 | B6 | 2.04 | 0.000849 | 417000
36 | B7 | 1.5 | 0.000698 | 464000
37 | B8 | 1.98 | 0.000349 | 176000

Reference: US20230220073A1 (UCL BUSINESS, published 2023)
